Data published in paper PMC4052849 (2014).

Target: T1, DS-SILY20 (decorin mimic, SILY peptide-dermatan sulfate conjugate) (about 20 SILY peptides conjugated via BMPH to dermatan sulfate)
T1 chain: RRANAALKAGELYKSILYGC
Experiment: solid-phase binding assay

Kd: 0.0551 µM
B1: IFN-γ (protein)
chain: QDPYVKEAENLKKYFNAGHSDVADNGTLFLGILKNWKEESDRKIMQSQIVSFYFKLFKNFKDDQSIQKSVETIKEDMNVKFFNSNKKKRDDFEKLTNYSVTDLNVQRKAIHELIQVMAELSPAAKTGKRKRSQMLFRG
